The results in this text go back to the supplement of paper PMC9112550, “Optimization of the antimicrobial peptide Bac7 by deep mutational scanning” (BMC Biology, 2022).

The test system of the series is Escherichia coli TOP10. Nature of the series: shrunken log2 fold change of peptide-encoding DNA abundance (4.5 h post-induction vs induction); higher = less antimicrobial activity (less host growth inhibition). As to conditions: time post-induction: 4.5 h; library: site-saturation at positions 5, 18, 19, 20.
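Note: peptides expressed intracellularly from a pBAD plasmid library in pooled LB shake-flask culture, induced with 0.3% L-arabinose, DNA abundance read by NGS, three biological replicates, DESeq2 with apeglm shrinkage.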

For RRIRFRPPRLPRPRPRPVIVPRP, the “shrunken log2 fold change” value was -0.997.
As for RRIRYRPPRLPRPRPRPKLTPRP, the “shrunken log2 fold change” value was -0.173.
For RRIRDRPPRLPRPRPRPTTHPRP, the “shrunken log2 fold change” value was determined as 0.313.
The value for RRIRFRPPRLPRPRPRPGYTPRP was -0.427; that for RRIRDRPPRLPRPRPRPLESPRP was 0.258; that for RRIRSRPPRLPRPRPRPHYMPRP was -0.273.
In the case of RRIRTRPPRLPRPRPRPTKMPRP, the “shrunken log2 fold change” value is -0.355.
In the case of RRIRTRPPRLPRPRPRPSNLPRP, the “shrunken log2 fold change” value was -0.97.
RRIRYRPPRLPRPRPRPDRFPRP: the “shrunken log2 fold change” value was -0.411.
Under RRIRKRPPRLPRPRPRPACRPRP stands 0.789; under RRIRKRPPRLPRPRPRPIMWPRP, 0.0599.
Under RRIRHRPPRLPRPRPRPHCDPRP stands -0.0744; under RRIRIRPPRLPRPRPRPCFYPRP, -0.694.
Under RRIRMRPPRLPRPRPRPKQDPRP stands 1.14.
As for RRIRCRPPRLPRPRPRPMYHPRP, the “shrunken log2 fold change” value was -0.974.
Under RRIRVRPPRLPRPRPRPIPGPRP stands -0.0572; under RRIRLRPPRLPRPRPRPHRTPRP, -0.0946.
The value for RRIRMRPPRLPRPRPRPGTFPRP was -0.0326; that for RRIRQRPPRLPRPRPRPPSNPRP was -0.481.
Under RRIRPRPPRLPRPRPRPHASPRP stands -0.192; under RRIRVRPPRLPRPRPRPSCAPRP, -0.16; under RRIRARPPRLPRPRPRPKYQPRP, -0.112.
Take RRIRWRPPRLPRPRPRPSFEPRP: the “shrunken log2 fold change” value is -0.0836.
For RRIRIRPPRLPRPRPRPDTDPRP, the “shrunken log2 fold change” value is -0.194.
Turning to RRIRFRPPRLPRPRPRPQFKPRP, the “shrunken log2 fold change” value was -0.217.
Under RRIRGRPPRLPRPRPRPVWPPRP stands 0.947; under RRIRIRPPRLPRPRPRPSAWPRP, 0.0616.
Take RRIRNRPPRLPRPRPRPAEKPRP: the “shrunken log2 fold change” value was found to be 0.0519.
Regarding RRIRYRPPRLPRPRPRPDKAPRP, the “shrunken log2 fold change” value is 0.0133.
With RRIRLRPPRLPRPRPRPYNQPRP, the “shrunken log2 fold change” value was -0.693.
The value for RRIRHRPPRLPRPRPRPNDTPRP was -0.933; that for RRIRSRPPRLPRPRPRPTDAPRP was 0.236; that for RRIRNRPPRLPRPRPRPPHRPRP was 0.00305.
The value for RRIRLRPPRLPRPRPRPFLHPRP was -0.306; that for RRIRVRPPRLPRPRPRPFPYPRP was -0.277; that for RRIRYRPPRLPRPRPRPTAWPRP was -0.011.
Regarding RRIRERPPRLPRPRPRPPGWPRP, the “shrunken log2 fold change” value stood at 0.467.
The value for RRIRPRPPRLPRPRPRPRQQPRP was 0.13; that for RRIRWRPPRLPRPRPRPVLDPRP was 0.0956; that for RRIRVRPPRLPRPRPRPEAPPRP was 0.000205.
The value for RRIRRRPPRLPRPRPRPWNLPRP was -0.269.
Under RRIRSRPPRLPRPRPRPKLYPRP stands -0.199.
For the sequence RRIRVRPPRLPRPRPRPMGIPRP, the “shrunken log2 fold change” value was 0.134.
For the sequence RRIRRRPPRLPRPRPRPNDIPRP, the “shrunken log2 fold change” value is -0.349.
The value for RRIRHRPPRLPRPRPRPHIQPRP was -0.701; that for RRIRCRPPRLPRPRPRPDWWPRP was 0.256; that for RRIRDRPPRLPRPRPRPHWRPRP was 0.0876.
Under RRIRNRPPRLPRPRPRPGHQPRP stands -0.0155.
The value for RRIRQRPPRLPRPRPRPQFLPRP was -0.359.
RRIRQRPPRLPRPRPRPDTWPRP: the “shrunken log2 fold change” value was -0.197.
Under RRIRNRPPRLPRPRPRPFKVPRP stands 0.0253; under RRIRMRPPRLPRPRPRPLRDPRP, 2.66.
The value for RRIRYRPPRLPRPRPRPLEQPRP was -0.121.
For RRIRCRPPRLPRPRPRPLQAPRP, the “shrunken log2 fold change” value was 0.646.
Under RRIRARPPRLPRPRPRPFLLPRP stands -0.223; under RRIRVRPPRLPRPRPRPMCKPRP, -0.508; under RRIRVRPPRLPRPRPRPHVEPRP, 0.0127.
The value for RRIRRRPPRLPRPRPRPQRQPRP was 0.175; that for RRIRFRPPRLPRPRPRPNMRPRP was 0.386; that for RRIRPRPPRLPRPRPRPSFEPRP was -0.102.
Under RRIRSRPPRLPRPRPRPPMGPRP stands -0.0142; under RRIRNRPPRLPRPRPRPSLTPRP, -0.266.
Turning to RRIRYRPPRLPRPRPRPWIVPRP, the “shrunken log2 fold change” value was -0.219.
As for RRIRRRPPRLPRPRPRPGHRPRP, the “shrunken log2 fold change” value was 0.192.
The value for RRIRVRPPRLPRPRPRPAHSPRP was 0.0902; that for RRIRKRPPRLPRPRPRPPHGPRP was 0.634; that for RRIRTRPPRLPRPRPRPKANPRP was -0.00404.
Under RRIRIRPPRLPRPRPRPFMSPRP stands -0.308; under RRIRERPPRLPRPRPRPEVWPRP, 0.4.
The value for RRIRQRPPRLPRPRPRPERTPRP was 0.124; that for RRIRCRPPRLPRPRPRPQIWPRP was -0.226.
In the case of RRIRNRPPRLPRPRPRPYCMPRP, the “shrunken log2 fold change” value was -0.776.
With RRIRVRPPRLPRPRPRPDSPPRP, the “shrunken log2 fold change” value amounted to 0.0663.
Turning to RRIRRRPPRLPRPRPRPQVWPRP, the “shrunken log2 fold change” value was 0.409.
The value for RRIRTRPPRLPRPRPRPHNMPRP was -0.651; that for RRIRQRPPRLPRPRPRPKNYPRP was -0.216.
The value for RRIRQRPPRLPRPRPRPGDHPRP was -0.0718.
Take RRIRCRPPRLPRPRPRPFQNPRP: the “shrunken log2 fold change” value was -0.0078.
The value for RRIRVRPPRLPRPRPRPCFQPRP was -0.313; that for RRIRARPPRLPRPRPRPKMHPRP was 0.364.
With RRIRYRPPRLPRPRPRPIVEPRP, the “shrunken log2 fold change” value turned out to be 0.00721.
The value for RRIRTRPPRLPRPRPRPEEFPRP was -0.0783; that for RRIRFRPPRLPRPRPRPCEPPRP was 0.0391; that for RRIRFRPPRLPRPRPRPAGVPRP was 0.172.
The value for RRIRSRPPRLPRPRPRPQNCPRP was 0.0871.
The value for RRIRLRPPRLPRPRPRPTIYPRP was -0.334.
Take RRIRTRPPRLPRPRPRPCDYPRP: the “shrunken log2 fold change” value is -0.0715.
The value for RRIRTRPPRLPRPRPRPMRGPRP was -0.0594.
The value for RRIRMRPPRLPRPRPRPGLTPRP was 1.02; that for RRIRHRPPRLPRPRPRPHMCPRP was -0.0681; that for RRIRNRPPRLPRPRPRPNNDPRP was -0.934.
